T1: capsid shell protein (CSP) λ1 (Mammalian reovirus serotype Dearing 3, UniProt P15024 1-1275)
T1 construct: capsid shell protein λ1 of mammalian reovirus serotype Dearing 3, native in the virus particle; 120 copies in each particle as λ1A/λ1B dimers; five pairs (1-5) around each vertex; also called λ1A; λ1B
T1 sequence: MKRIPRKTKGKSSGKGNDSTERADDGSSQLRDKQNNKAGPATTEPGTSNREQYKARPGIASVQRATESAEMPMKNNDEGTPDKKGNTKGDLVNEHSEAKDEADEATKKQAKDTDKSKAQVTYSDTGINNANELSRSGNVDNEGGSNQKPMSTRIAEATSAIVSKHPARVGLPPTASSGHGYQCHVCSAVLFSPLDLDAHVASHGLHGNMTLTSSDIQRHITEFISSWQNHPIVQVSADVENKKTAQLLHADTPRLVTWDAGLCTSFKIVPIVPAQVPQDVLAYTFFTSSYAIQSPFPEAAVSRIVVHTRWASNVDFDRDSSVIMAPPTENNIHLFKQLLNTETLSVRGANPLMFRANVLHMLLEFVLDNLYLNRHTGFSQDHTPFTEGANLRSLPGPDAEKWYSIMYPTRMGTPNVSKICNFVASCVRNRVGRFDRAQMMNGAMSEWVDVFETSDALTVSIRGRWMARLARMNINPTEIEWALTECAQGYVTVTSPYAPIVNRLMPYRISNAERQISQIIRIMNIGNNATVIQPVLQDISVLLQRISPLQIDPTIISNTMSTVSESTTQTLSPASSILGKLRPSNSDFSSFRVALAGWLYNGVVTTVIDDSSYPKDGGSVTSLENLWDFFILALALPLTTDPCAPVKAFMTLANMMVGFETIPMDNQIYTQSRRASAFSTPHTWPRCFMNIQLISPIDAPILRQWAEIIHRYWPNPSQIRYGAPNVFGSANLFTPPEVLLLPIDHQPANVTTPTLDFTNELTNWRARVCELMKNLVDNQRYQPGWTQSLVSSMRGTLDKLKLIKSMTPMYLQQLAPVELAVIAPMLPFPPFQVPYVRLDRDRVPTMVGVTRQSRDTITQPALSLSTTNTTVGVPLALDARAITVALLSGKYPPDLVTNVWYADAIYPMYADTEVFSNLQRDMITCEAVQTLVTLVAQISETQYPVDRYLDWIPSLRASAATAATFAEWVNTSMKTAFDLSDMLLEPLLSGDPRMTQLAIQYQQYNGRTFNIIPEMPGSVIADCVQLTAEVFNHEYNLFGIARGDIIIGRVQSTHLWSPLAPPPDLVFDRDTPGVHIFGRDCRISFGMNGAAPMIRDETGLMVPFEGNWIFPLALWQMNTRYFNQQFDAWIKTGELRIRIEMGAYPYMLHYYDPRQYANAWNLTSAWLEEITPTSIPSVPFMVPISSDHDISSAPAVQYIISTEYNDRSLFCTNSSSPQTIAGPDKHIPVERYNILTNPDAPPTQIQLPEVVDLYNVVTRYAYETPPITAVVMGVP

B1: RNA-dependent RNA polymerase (RdRp) λ3 (enzyme)
chain: MSSMILTQFGPFIESISGITDQSNDVFEDAAKAFSMFTRSDVYKALDEIPFSDDAMLPIPPTIYTKPSHDSYYYIDALNRVRRKTYQGPDDVYVPNCSIVELLEPHETLTSYGRLSEAIENRAKDGDSQARIATTYGRIAESQARQIKAPLEKFVLALLVAEAGGSLYDPVLQKYDEIPDLSHNCPLWCFREICRHISGPLPDRAPYLYLSAGVFWLMSPRMTSAIPPLLSDLVNLAILQQTAGLDPSLVKLGVQICLHAAASSSYSWFILKTKSIFPQNTLHSMYESLEGGYCPNLEWLEPRSDYKFMYMGVMPLSAKYARSAPSNDKKARELGEKYGLSSVVGELRKRTKTYVKHDFASVRYIRDAMACTSGIFLVRTPTETVLQEYTQSPEIKVPIPQKDWTGPIGEIRILKDTTSSIARYLYRTWYLAAARMAAQPRTWDPLFQAIMRSQYVTARGGSGAALRESLYAINVSLPDFKGLPVKAATKIFQAAQLANLPFSHTSVAILADTSMGLRNQVQRRPRSIMPLNVPQQQVSAPHTLTADYINYHMNLSPTSGSAVIEKVIPLGVYASSPPNQSINIDISACDASITWDFFLSVIMAAIHEGVASSSIGKPFMGVPASIVNDESVVGVRAARPISGMQNMIQHLSKLYKRGFSYRVNDSFSPGNDFTHMTTTFPSGSTATSTEHTANNSTMMETFLTVWGPEHTDDPDVLRLMKSLTIQRNYVCQGDDGLMIIDGTTAGKVNSETIQNDLELISKYGEEFGWKYDIAYDGTAEYLKLYFIFGCRIPNLSRHPIVGKERANSSAEEPWPAILDQIMGVFFNGVHDGLQWQRWIRYSWALCCAFSRQRTMIGESVGYLQYPMWSFVYWGLPLVKAFGSDPWIFSWYMPTGDLGMYSWISLIRPLMTRWMVANGYVTDRCSTVFGNADYRRCFNELKLYQGYYMAQLPRNPKKSGRAASREVREQFTQALSDYLMQNPELKSRVLRGRSEWEKYGAGIIHNPPSLFDVPHKWYQGAQEAAIATREELAEMDETLMRARRHSYSSFSKLLEAYLLVKWRMCEAREPSVDLRLPLCAGIDPLNSDPFLKMVSVGPMLQSTRKYFAQTLFMAKTVSGLDVNAIDSALLRLRTLGADKKALTAQLLMVGLQESEADALAGKIMLQDVNTVQLARVVNLAVPDTWMSLDFDSMFKHHVKLLPKDGRHLNTDIPPRMGWLRAILRFLGAGMVMTATGVAVDIYLEDIHGGGRSLGQRFMTWMRQEGRSA
notes: RdRp λ3 of mammalian reovirus serotype Dearing 3, native in the virus particle; domains stated as residues 1-386, 387-556 and 595-690, 557-594 and 691-792, 793-901, 902-1267; Part of the transcribing enzyme complex (TEC) with µ2; ten TECs in each particle

Experiments:
[1] = target: B1; experiment: cryo-EM structure; asymmetric (C1) vertex sub-particle reconstructions of native MRV ISVP at 3.3 Å, asymmetric full ISVP at 4.3 Å; isolated virus particles in PBS pH 7.4; proteins assembled in the particle, in situ; settings: both partners purified
[2] = target: T1, capsid shell protein (CSP) λ1; experiment: as above; settings: both partners purified

Row | Binder | binding result [1] | binding result [2]
1 | RdRp-bound nucleoside triphosphatase μ2 (enzyme, NTPase μ2 of mammalian reovirus serotype Dearing 3, native in the virus particle; 736 residues in all, 680 modelled; RBD 1-264, NTPase domain 265-607, CTD 608-736; also called NTPase; NTPase μ2) MAYIAVPAVVDSRSSEAIGLLESFGVDAGADANDVSYQDHDYVLDQLQYMLDGYEAGDVIDALVHKNWLHHSVYCLLPPKSQLLEYWKSNPSAIPDNVDRRLRKRLMLKKDLRKDDEYNQLARAFKISDVYAPLISSTTSPMTMIQNLNRGEIVYTTTDRVIGARILLYAPRKYYASTLSFTMTKCIIPFGKEVGRVPHSRFNVGTFPSIATPKCFVMSGVDIESIPNEFIKLFYQRVKSVHANILNDISPQIVSDMINRKRLRVHTPSDRRAAQLMHLPYHVKRGASHVDVYKVDVVDMLFEVVDVADGLRNVSRKLTMHTVPVCILEMLGIEIADYCIRQEDGMLTDWFLLLTMLSDGLTDRRTHCQYLMNPSSVPPDVILNISITGFINRHTIDVMPDIYDFVKPIGAVLPKGSFKSTIMRVLDSISILGIQIMPRAHVVDSDEVGEQMEPTFEQAVMEIYKGIAGVDSLDDLIKWVLNSDLIPHDDRLGQLFQAFLPLAKDLLAPMARKFYDNSMSEGRLLTFAHADSELLNANYFGHLLRLKIPYITEVNLMIRKNREGGELFQLVLSYLYKMYATSAQPKWFGSLLRLLICPWLHMEKLIGEADPASTSAEIGWHIPREQLMQDGWCGCEDGFIPYVSIRAPRLVIEELMEKNWGQYHAQVIVTDQLVVGEPRRVSAKAVIKGNHLPVKLVSRFACFTLTAKYEMRLSCGHSTGRGAAYSARLAFRSDLA | binds | binds
2 | B1 |  | binds

— paper PMC8263624, “Asymmetric reconstruction of mammalian reovirus reveals interactions among RNA, transcriptional factor µ2 and capsid proteins” (Nature Communications, 2021)
